Numbering of substitutions follows the chain as printed. Numbers in names are those of the source.
B1: YhhT from Escherichia coli (natural protein, E. coli K-12, UniProt P0AGM0 1-349, looked up)
chain: METPQPDKTGMHILLKLASLVVILAGIHAAADIIVQLLLALFFAIVLNPLVTWFIRRGVQRPVAITIVVVVMLIALTALVGVLAASFNEFISMLPKFNKELTRKLFKLQEMLPFLNLHMSPERMLQRMDSEKVVTFTTALMTGLSGAMASVLLLVMTVVFMLFEVRHVPYKMRFALNNPQIHIAGLHRALKGVSHYLALKTLLSLWTGVIVWLGLELMGVQFALMWAVLAFLLNYVPNIGAVISAVPPMIQVLLFNGVYECILVGALFLVVHMVIGNILEPRMMGHRLGMSTMVVFLSLLIWGWLLGPVGMLLSVPLTSVCKIWMETTKGGSKLAILLGPGRPKSRLPG
B2: TqsA (transporter of quorum-sensing signal AI-2) from Escherichia coli (natural protein, E. coli K-12, UniProt P0AFS5 1-344, looked up)
chain: MAKPIITLNGLKIVIMLGMLVIILCGIRFAAEIIVPFILALFIAVILNPLVQHMVRWRVPRVLAVSILMTIIVMAMVLLLAYLGSALNELTRTLPQYRNSIMTPLQALEPLLQRVGIDVSVDQLAHYIDPNAAMTLLTNLLTQLSNAMSSIFLLLLTVLFMLLEVPQLPGKFQQMMARPVEGMAAIQRAIDSVSHYLVLKTAISIITGLVAWAMLAALDVRFAFVWGLLAFALNYIPNIGSVLAAIPPIAQVLVFNGFYEALLVLAGYLLINLVFGNILEPRIMGRGLGLSTLVVFLSLIFWGWLLGPVGMLLSVPLTIIVKIALEQTAGGQSIAVLLSDLNKE
B3: TqsA N238L (natural protein, E. coli K-12, UniProt P0AFS5 1-344, looked up)
chain: B2 chain with N238L
B4: TqsA E280Q (natural protein, E. coli K-12, UniProt P0AFS5 1-344, looked up)
chain: B2 chain with E280Q
B5: TqsA N234L (natural protein, E. coli K-12, UniProt P0AFS5 1-344, looked up)
chain: B2 chain with N234L
B6: TqsA R61L (natural protein, E. coli K-12, UniProt P0AFS5 1-344, looked up)
chain: B2 chain with R61L
B7: TqsA E164Q (natural protein, E. coli K-12, UniProt P0AFS5 1-344, looked up)
chain: B2 chain with E164Q
B8: TqsA K200L (natural protein, E. coli K-12, UniProt P0AFS5 1-344, looked up)
chain: B2 chain with K200L
B9: TqsA P237A (natural protein, E. coli K-12, UniProt P0AFS5 1-344, looked up)
chain: B2 chain with P237A
B10: PerM from Escherichia coli (natural protein, E. coli K-12, UniProt P0AFI9 1-353, looked up)
chain: MLEMLMQWYRRRFSDPEAIALLVILVAGFGIIFFFSGLLAPLLVAIVLAYLLEWPTVRLQSIGCSRRWATSIVLVVFVGILLLMAFVVLPIAWQQGIYLIRDMPGMLNKLSDFAATLPRRYPALMDAGIIDAMAENMRSRMLTMGDSVVKISLASLVGLLTIAVYLVLVPLMVFFLLKDKEQMLNAVRRVLPRNRGLAGQVWKEMNQQITNYIRGKVLEMIVVGIATWLGFLLFGLNYSLLLAVLVGFSVLIPYIGAFVVTIPVVGVALFQFGAGTEFWSCFAVYLIIQALDGNLLVPVLFSEAVNLHPLVIILSVVIFGGLWGFWGVFFAIPLATLIKAVIHAWPDGQIAQE
B11: YdiK from Escherichia coli (natural protein, E. coli K-12, UniProt P0AFS7 1-370, looked up)
chain: MVNVRQPRDVAQILLSVLFLAIMIVACLWIVQPFILGFAWAGTVVIATWPVLLRLQKIMFGRRSLAVLVMTLLLVMVFIIPIALLVNSIVDGSGPLIKAISSGDMTLPDLAWLNTIPVIGAKLYAGWHNLLDMGGTAIMAKVRPYIGTTTTWFVGQAAHIGRFMVHCALMLLFSALLYWRGEQVAQGIRHFATRLAGVRGDAAVLLAAQAIRAVALGVVVTALVQAVLGGIGLAVSGVPYATLLTVLMILSCLVQLGPLPVLIPAIIWLYWTGDTTWGTVLLVWSGVVGTLDNVIRPMLIRMGADLPLILILSGVIGGLIAFGMIGLFIGPVLLAVSWRLFAAWVEEVPPPTDQPEEILEELGEIEKPNK

Key:
[1] = target: the molecule itself; assay: cryo-EM 2D class averages
cryo-EM structure = target: the molecule itself; assay: cryo-EM structure
SEC + native gel or EMSA = target: the molecule itself; assay: SEC + native gel or EMSA
native gel or EMSA = target: the molecule itself; assay: native gel or EMSA

Protein | stoichiometry N (SEC + native gel or EMSA) | further results
B1 |  | stoichiometry N [1]: 5
B2 |  | stoichiometry N (cryo-EM structure): 5
B3 | 5 | 
B4 | 5 | 
B5 | 5 | 
B6 | 5 | 
B7 | 5 | 
B8 | 5 | 
B9 | 5 | 
B10 |  | stoichiometry N (native gel or EMSA): 2
B11 |  | stoichiometry N (cryo-EM structure): 5

Reference: PMC9475539 (The EMBO Journal, 2022)
